Consider one molecule from patent publication US20150140014A1.

Assay [1] deals with c-Met on human cancer cells (MKN45 gastric cancer cells; NCI-H441 lung cancer cells) (human) (UniProt P08581). The assay is described as follows: cell-based or functional assay.
For assay [2], the target named is human c-Met protein (human) (UniProt P08581). The experiment in a line: SPR (Biacore), antibody immobilized on CM5 chip, human c-Met protein 0.39-100 nM injected.
Sequence of human c-Met protein (human) (P08581 25-932 limits assumed): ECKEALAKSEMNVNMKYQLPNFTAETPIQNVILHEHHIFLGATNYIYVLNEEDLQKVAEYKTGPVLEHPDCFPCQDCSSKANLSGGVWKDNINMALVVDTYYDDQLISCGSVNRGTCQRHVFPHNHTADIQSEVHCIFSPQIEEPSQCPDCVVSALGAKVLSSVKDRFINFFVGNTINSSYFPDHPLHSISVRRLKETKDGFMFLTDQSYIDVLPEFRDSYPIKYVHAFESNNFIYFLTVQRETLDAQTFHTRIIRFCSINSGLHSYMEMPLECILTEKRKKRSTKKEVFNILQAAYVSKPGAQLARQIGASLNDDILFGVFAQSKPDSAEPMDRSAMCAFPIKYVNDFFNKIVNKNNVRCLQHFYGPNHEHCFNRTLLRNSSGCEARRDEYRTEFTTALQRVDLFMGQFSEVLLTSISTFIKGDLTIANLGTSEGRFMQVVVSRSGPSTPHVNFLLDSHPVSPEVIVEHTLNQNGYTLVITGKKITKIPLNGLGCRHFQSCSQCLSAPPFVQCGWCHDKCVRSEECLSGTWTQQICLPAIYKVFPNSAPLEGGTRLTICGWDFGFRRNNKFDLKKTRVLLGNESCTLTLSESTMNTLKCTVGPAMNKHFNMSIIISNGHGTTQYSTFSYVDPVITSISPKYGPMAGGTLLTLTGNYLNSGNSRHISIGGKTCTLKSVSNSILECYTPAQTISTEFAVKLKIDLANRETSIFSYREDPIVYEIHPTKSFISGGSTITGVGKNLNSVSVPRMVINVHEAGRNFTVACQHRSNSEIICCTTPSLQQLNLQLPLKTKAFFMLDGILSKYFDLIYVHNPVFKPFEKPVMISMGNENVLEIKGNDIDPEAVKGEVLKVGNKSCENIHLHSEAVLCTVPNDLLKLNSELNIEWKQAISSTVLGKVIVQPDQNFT

Sequence of c-Met on human cancer cells (MKN45 gastric cancer cells; NCI-H441 lung cancer cells) (human) (P08581 25-1390): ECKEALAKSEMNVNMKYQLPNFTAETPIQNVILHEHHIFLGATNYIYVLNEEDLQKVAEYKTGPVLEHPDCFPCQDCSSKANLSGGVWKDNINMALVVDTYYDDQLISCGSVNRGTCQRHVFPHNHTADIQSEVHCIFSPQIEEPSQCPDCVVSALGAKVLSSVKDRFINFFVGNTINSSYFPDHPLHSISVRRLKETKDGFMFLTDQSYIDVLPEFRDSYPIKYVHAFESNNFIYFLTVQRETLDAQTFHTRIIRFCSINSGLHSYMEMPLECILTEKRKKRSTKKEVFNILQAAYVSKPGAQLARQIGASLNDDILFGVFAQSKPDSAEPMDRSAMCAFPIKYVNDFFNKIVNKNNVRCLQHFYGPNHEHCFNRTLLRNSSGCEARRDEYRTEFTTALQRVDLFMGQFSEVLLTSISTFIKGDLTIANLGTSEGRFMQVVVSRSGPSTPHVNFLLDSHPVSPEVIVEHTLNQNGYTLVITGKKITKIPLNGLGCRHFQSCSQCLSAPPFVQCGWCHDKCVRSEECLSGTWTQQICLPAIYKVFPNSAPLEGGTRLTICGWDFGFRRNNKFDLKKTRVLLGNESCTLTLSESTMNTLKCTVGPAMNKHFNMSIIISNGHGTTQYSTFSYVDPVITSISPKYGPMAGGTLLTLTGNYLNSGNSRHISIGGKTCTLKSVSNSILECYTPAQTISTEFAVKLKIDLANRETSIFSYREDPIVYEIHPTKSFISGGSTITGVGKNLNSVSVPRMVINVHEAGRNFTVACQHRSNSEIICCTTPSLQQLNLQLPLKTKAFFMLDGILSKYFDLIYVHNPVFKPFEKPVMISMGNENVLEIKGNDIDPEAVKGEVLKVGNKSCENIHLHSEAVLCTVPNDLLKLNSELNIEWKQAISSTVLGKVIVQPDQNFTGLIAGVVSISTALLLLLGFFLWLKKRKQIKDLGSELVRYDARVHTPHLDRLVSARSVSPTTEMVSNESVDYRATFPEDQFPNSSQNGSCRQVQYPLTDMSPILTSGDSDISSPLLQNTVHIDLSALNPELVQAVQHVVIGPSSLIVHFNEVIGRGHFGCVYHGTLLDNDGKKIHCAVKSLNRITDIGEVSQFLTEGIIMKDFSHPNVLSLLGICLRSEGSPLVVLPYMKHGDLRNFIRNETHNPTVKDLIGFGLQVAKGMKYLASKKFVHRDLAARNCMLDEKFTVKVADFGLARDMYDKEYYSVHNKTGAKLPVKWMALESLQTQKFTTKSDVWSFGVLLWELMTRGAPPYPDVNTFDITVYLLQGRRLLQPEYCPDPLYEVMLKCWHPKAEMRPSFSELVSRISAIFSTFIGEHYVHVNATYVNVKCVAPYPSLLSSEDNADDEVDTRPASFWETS

B1: huAbF46-H4-A1 (antibody, from a related filing, V domains shown)
VH: EVQLVESGGGLVQPGGSLRLSCAASGFTFTDYYMSWVRQAPGKGLEWLGFIRNKANGYTTEYSASVKGRFTISRDNSKNTLYLQMNSLRAEDTAVYYCARDNWFAYWGQGTLVTVSS
VL: DIQMTQSPSSLSASVGDRVTITCKSSQSLLASGNQNNYLAWHQQKPGKAPKMLIIWASTRVSGVPSRFSGSGSGTDFTLTISSLQPEDFATYYCQQSYSRPYTFGQGTKVEIKR
The Kd is the equilibrium constant for the complex coming apart. Low values mean a tighter complex, high ones a looser complex. The term koff denotes the first-order rate constant of dissociation. One may read the kon as the second-order rate constant of association. A high value points to faster complex formation. In assay [1], B1 came in with a BrdU assay on NCI-H441 cells (agonism), 10 ug/ml of 25% and a degree of degradation of c-Met (total c-Met ELISA, MKN45 cells, 5 ug/ml, 24 hours) of 37%. Further, in assay [2], the Kd is 0.06 nM, the koff amounted to 4.53e-05 s⁻¹ and the kon was 739000 M⁻¹ s⁻¹.
